Measured values published in PMC5515580.

Key:
MAST3-HA (human) = MAST3-HA (human) (UniProt O60307)
Recombinant PKA = Recombinant PKA (UniProt P17612)

6xHis-ARPP-16, sequence (P56211 17-112): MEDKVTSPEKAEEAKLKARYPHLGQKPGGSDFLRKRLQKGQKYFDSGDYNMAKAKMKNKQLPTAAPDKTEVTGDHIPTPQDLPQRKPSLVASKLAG
MAST3-HA (human), sequence (O60307 313-1021): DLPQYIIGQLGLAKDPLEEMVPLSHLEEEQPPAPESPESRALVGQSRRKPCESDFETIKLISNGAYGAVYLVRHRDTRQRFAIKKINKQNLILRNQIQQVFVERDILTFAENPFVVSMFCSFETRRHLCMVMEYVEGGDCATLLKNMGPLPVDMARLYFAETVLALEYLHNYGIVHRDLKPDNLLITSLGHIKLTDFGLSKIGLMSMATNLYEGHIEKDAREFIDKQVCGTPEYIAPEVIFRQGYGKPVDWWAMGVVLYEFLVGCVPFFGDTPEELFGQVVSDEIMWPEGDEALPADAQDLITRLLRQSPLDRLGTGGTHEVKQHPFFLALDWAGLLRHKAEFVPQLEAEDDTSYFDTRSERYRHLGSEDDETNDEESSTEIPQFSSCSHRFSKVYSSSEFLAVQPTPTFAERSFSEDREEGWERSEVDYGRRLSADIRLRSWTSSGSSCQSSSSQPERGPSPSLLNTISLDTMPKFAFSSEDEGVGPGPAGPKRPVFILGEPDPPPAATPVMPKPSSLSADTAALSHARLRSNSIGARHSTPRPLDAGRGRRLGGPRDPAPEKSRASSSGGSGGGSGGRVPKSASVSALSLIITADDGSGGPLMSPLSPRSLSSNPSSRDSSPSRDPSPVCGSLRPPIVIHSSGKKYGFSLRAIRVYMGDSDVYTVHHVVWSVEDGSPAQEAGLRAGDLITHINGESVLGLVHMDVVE
P-S46-ARPP-16, sequence (P56211 17-112): as the sequence (P56211 17-112) above

Which results are given for “6xHis-ARPP-16 (from UniProt P56211-2 1-96) (natural protein)”?
Km of phosphorylation of Ser46 by immunoprecipitated MAST3 (32P incorporation, 10-500 nM substrate, 2 min; Figure 1b) (MAST3-HA (human)): 0.09 µM; Km of phosphorylation of Ser46 by immunoprecipitated MAST3 (32P incorporation, 10-500 nM substrate, 2 min; Figure 1—figure supplement 1) (MAST3-HA (human)): 0.092 µM; Km of phosphorylation of Ser88 by PKA (32P incorporation, 10-500 nM substrate; Figure 1d) (Recombinant PKA): 1.69 µM

How did the Km of phosphorylation of Ser88 by PKA (32P incorporation, 10-500 nM substrate; Figure 1d) (Recombinant PKA) turn out when “P-S46-ARPP-16 (from UniProt P56211-2 1-96) (natural protein)” was run?
Its Km of phosphorylation of Ser88 by PKA (32P incorporation, 10-500 nM substrate; Figure 1d) is 0.87 µM.
